Measurements: US20200079833A1 (AstraZeneca / MedImmune, published 2020)
Starred links: 1 amine or outer side, 2 acyl side, 3 side chain; linkers in the order of their positions; H or OH if unused. Non-standard residues stand in square brackets, D forms with d. Groups on a side chain read outwards from the residue. Primed or numbered codes have the meaning given here. No end group written: not given here. *: point of attachment. Dodecylbenzoate = dodecylbenzoyl lipid group; γGlu = O=C(O)[C@H](CCC(=O)[*:2])N[*:1]; Stearoyl = CCCCCCCCCCCCCCCCCC(=O)*; αMeF = C[C@](N)(Cc1ccccc1)C(=O)O; αMeK = C[C@](N)(CCCCN)C(=O)O; Lauroyl = CCCCCCCCCCCC(=O)*; αMeS = C[C@](N)(CO)C(=O)O; PEG2′ = not defined here; Aib = CC(C)(N)C(=O)O; Ahx = NCCCCCC(=O)O

B1: SEQ ID NO 168 (peptide)
peptide: H[Aib]EGS[αMeF]TSDV[αMeS]S[αMeF]LEGEAA[αMeK]E[αMeF]IA[αMeF]VVK([Ahx-Ahx-Lauroyl])GG-NH2
modifications: N-terminus assumed
SMILES: CCCCCCCCCCCC(=O)NCCCCCC(=O)NCCCCCC(=O)NCCCC[C@H](NC(=O)[C@@H](NC(=O)[C@@H](NC(=O)[C@](C)(Cc1ccccc1)NC(=O)[C@H](C)NC(=O)[C@@H](NC(=O)[C@](C)(Cc1ccccc1)NC(=O)[C@H](CCC(=O)O)NC(=O)[C@](C)(CCCCN)NC(=O)[C@H](C)NC(=O)[C@H](C)NC(=O)[C@H](CCC(=O)O)NC(=O)CNC(=O)[C@H](CCC(=O)O)NC(=O)[C@H](CC(C)C)NC(=O)[C@](C)(Cc1ccccc1)NC(=O)[C@H](CO)NC(=O)[C@](C)(CO)NC(=O)[C@@H](NC(=O)[C@H](CC(=O)O)NC(=O)[C@H](CO)NC(=O)[C@@H](NC(=O)[C@](C)(Cc1ccccc1)NC(=O)[C@H](CO)NC(=O)CNC(=O)[C@H](CCC(=O)O)NC(=O)C(C)(C)NC(=O)[C@@H](N)Cc1c[nH]cn1)[C@@H](C)O)C(C)C)[C@@H](C)CC)C(C)C)C(C)C)C(=O)NCC(=O)NCC(N)=O
B2: SEQ ID NO 154 (peptide)
peptide: H[Aib]EGS[αMeF]TSDV[αMeS]S[αMeF]LEGEAAK([PEG2′-PEG2′-PEG2′-Stearoyl])E[αMeF]IA[αMeF]VV[αMeK]GG-NH2
B3: SEQ ID NO 178 (peptide)
peptide: H[Aib]EGS[αMeF]TSDV[αMeS]S[αMeF]LEGEAA[αMeK]E[αMeF]IA[αMeF]VVK([Ahx-Ahx-Ahx-Dodecylbenzoate])GG-NH2
B4: SEQ ID NO 180 (peptide)
peptide: H[Aib]EGS[αMeF]TSDV[αMeS]S[αMeF]LEGEAA[αMeK]E[αMeF]IA[αMeF]VVK([PEG2′-PEG2′-Dodecylbenzoate])GG-NH2
B5: SEQ ID NO 189 (peptide)
peptide: H[Aib]EGS[αMeF]TSDV[αMeS]S[αMeF]LEGEAA[αMeK]E[αMeF]IA[αMeF]VVK([PEG2′-PEG2′-Stearoyl])GG-NH2
B6: SEQ ID NO 169 (peptide)
peptide: H[Aib]EGS[αMeF]TSDV[αMeS]S[αMeF]LEGEAA[αMeK]E[αMeF]IA[αMeF]VVK([Ahx-Ahx-Ahx-Lauroyl])GG-NH2
modifications: N-terminus assumed
SMILES: CCCCCCCCCCCC(=O)NCCCCCC(=O)NCCCCCC(=O)NCCCCCC(=O)NCCCC[C@H](NC(=O)[C@@H](NC(=O)[C@@H](NC(=O)[C@](C)(Cc1ccccc1)NC(=O)[C@H](C)NC(=O)[C@@H](NC(=O)[C@](C)(Cc1ccccc1)NC(=O)[C@H](CCC(=O)O)NC(=O)[C@](C)(CCCCN)NC(=O)[C@H](C)NC(=O)[C@H](C)NC(=O)[C@H](CCC(=O)O)NC(=O)CNC(=O)[C@H](CCC(=O)O)NC(=O)[C@H](CC(C)C)NC(=O)[C@](C)(Cc1ccccc1)NC(=O)[C@H](CO)NC(=O)[C@](C)(CO)NC(=O)[C@@H](NC(=O)[C@H](CC(=O)O)NC(=O)[C@H](CO)NC(=O)[C@@H](NC(=O)[C@](C)(Cc1ccccc1)NC(=O)[C@H](CO)NC(=O)CNC(=O)[C@H](CCC(=O)O)NC(=O)C(C)(C)NC(=O)[C@@H](N)Cc1c[nH]cn1)[C@@H](C)O)C(C)C)[C@@H](C)CC)C(C)C)C(C)C)C(=O)NCC(=O)NCC(N)=O
B7: SEQ ID NO 190 (peptide)
peptide: H[Aib]EGS[αMeF]TSDV[αMeS]S[αMeF]LEGEAA[αMeK]E[αMeF]IA[αMeF]VVK([PEG2′-PEG2′-PEG2′-Stearoyl])GG-NH2
B8: SEQ ID NO 171 (peptide)
peptide: H[Aib]EGS[αMeF]TSDV[αMeS]S[αMeF]LEGEAA[αMeK]E[αMeF]IA[αMeF]VVK([PEG2′-PEG2′-Lauroyl])GG-NH2
B9: SEQ ID NO 184 (peptide)
peptide: H[Aib]EGS[αMeF]TSDV[αMeS]S[αMeF]LEGEAA[αMeK]E[αMeF]IA[αMeF]VVK([γGlu-γGlu-γGlu-Stearoyl])GG-NH2
modifications: N-terminus assumed
SMILES: CCCCCCCCCCCCCCCCCC(=O)N[C@@H](CCC(=O)N[C@@H](CCC(=O)N[C@@H](CCC(=O)NCCCC[C@H](NC(=O)[C@@H](NC(=O)[C@@H](NC(=O)[C@](C)(Cc1ccccc1)NC(=O)[C@H](C)NC(=O)[C@@H](NC(=O)[C@](C)(Cc1ccccc1)NC(=O)[C@H](CCC(=O)O)NC(=O)[C@](C)(CCCCN)NC(=O)[C@H](C)NC(=O)[C@H](C)NC(=O)[C@H](CCC(=O)O)NC(=O)CNC(=O)[C@H](CCC(=O)O)NC(=O)[C@H](CC(C)C)NC(=O)[C@](C)(Cc1ccccc1)NC(=O)[C@H](CO)NC(=O)[C@](C)(CO)NC(=O)[C@@H](NC(=O)[C@H](CC(=O)O)NC(=O)[C@H](CO)NC(=O)[C@@H](NC(=O)[C@](C)(Cc1ccccc1)NC(=O)[C@H](CO)NC(=O)CNC(=O)[C@H](CCC(=O)O)NC(=O)C(C)(C)NC(=O)[C@@H](N)Cc1c[nH]cn1)[C@@H](C)O)C(C)C)[C@@H](C)CC)C(C)C)C(C)C)C(=O)NCC(=O)NCC(N)=O)C(=O)O)C(=O)O)C(=O)O
B10: SEQ ID NO 177 (peptide)
peptide: H[Aib]EGS[αMeF]TSDV[αMeS]S[αMeF]LEGEAA[αMeK]E[αMeF]IA[αMeF]VVK([Ahx-Ahx-Dodecylbenzoate])GG-NH2
B11: SEQ ID NO 166 (peptide)
peptide: H[Aib]EGS[αMeF]TSDV[αMeS]S[αMeF]LEGEAA[αMeK]E[αMeF]IA[αMeF]VVK([γGlu-γGlu-γGlu-Lauroyl])GG-NH2
modifications: N-terminus assumed
SMILES: CCCCCCCCCCCC(=O)N[C@@H](CCC(=O)N[C@@H](CCC(=O)N[C@@H](CCC(=O)NCCCC[C@H](NC(=O)[C@@H](NC(=O)[C@@H](NC(=O)[C@](C)(Cc1ccccc1)NC(=O)[C@H](C)NC(=O)[C@@H](NC(=O)[C@](C)(Cc1ccccc1)NC(=O)[C@H](CCC(=O)O)NC(=O)[C@](C)(CCCCN)NC(=O)[C@H](C)NC(=O)[C@H](C)NC(=O)[C@H](CCC(=O)O)NC(=O)CNC(=O)[C@H](CCC(=O)O)NC(=O)[C@H](CC(C)C)NC(=O)[C@](C)(Cc1ccccc1)NC(=O)[C@H](CO)NC(=O)[C@](C)(CO)NC(=O)[C@@H](NC(=O)[C@H](CC(=O)O)NC(=O)[C@H](CO)NC(=O)[C@@H](NC(=O)[C@](C)(Cc1ccccc1)NC(=O)[C@H](CO)NC(=O)CNC(=O)[C@H](CCC(=O)O)NC(=O)C(C)(C)NC(=O)[C@@H](N)Cc1c[nH]cn1)[C@@H](C)O)C(C)C)[C@@H](C)CC)C(C)C)C(C)C)C(=O)NCC(=O)NCC(N)=O)C(=O)O)C(=O)O)C(=O)O
B12: SEQ ID NO 181 (peptide)
peptide: H[Aib]EGS[αMeF]TSDV[αMeS]S[αMeF]LEGEAA[αMeK]E[αMeF]IA[αMeF]VVK([PEG2′-PEG2′-PEG2′-Dodecylbenzoate])GG-NH2
B13: SEQ ID NO 172 (peptide)
peptide: H[Aib]EGS[αMeF]TSDV[αMeS]S[αMeF]LEGEAA[αMeK]E[αMeF]IA[αMeF]VVK([PEG2′-PEG2′-PEG2′-Lauroyl])GG-NH2
B14: SEQ ID NO 170 (peptide)
peptide: H[Aib]EGS[αMeF]TSDV[αMeS]S[αMeF]LEGEAA[αMeK]E[αMeF]IA[αMeF]VVK([PEG2′-Lauroyl])GG-NH2
B15: SEQ ID NO 179 (peptide)
peptide: H[Aib]EGS[αMeF]TSDV[αMeS]S[αMeF]LEGEAA[αMeK]E[αMeF]IA[αMeF]VVK([PEG2′-Dodecylbenzoate])GG-NH2

Target: T1, GLP-1R (INS1e assay) (UniProt P32301 22-463, limits assumed)
T1 sequence (looked up): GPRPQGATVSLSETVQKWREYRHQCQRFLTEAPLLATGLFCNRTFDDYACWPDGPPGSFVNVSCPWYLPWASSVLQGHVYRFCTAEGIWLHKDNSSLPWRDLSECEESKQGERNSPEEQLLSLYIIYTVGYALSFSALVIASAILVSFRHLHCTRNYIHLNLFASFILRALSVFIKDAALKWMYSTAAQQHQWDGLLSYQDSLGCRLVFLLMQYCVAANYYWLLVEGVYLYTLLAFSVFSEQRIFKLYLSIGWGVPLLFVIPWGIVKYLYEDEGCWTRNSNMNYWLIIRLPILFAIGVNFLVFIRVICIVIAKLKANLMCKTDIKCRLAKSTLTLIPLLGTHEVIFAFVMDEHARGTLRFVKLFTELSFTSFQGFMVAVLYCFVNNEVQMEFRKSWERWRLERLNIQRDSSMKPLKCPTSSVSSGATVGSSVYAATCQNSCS
Test: cell-based or functional assay

Row | Binder | INS1e assay EC50 GLP-1 R n1 [nM] | INS1e assay EC50 GLP-1 R n2 [nM] | INS1e assay EC50 Mean pM GLP-1R [pM]
1 | B1 | 0.189 | 0.462 | 326
2 | B2 | 0.0323 | 0.0171 | 25
3 | B3 | 0.31 | 0.258 | 284
4 | B4 | 0.0678 | 0.0506 | 59.2
5 | B5 | 0.114 | 0.173 | 144
6 | B6 | 0.0931 | 0.269 | 181
7 | B7 | 0.0397 | 0.0485 | 44.1
8 | B8 | 0.0817 | 0.175 | 128
9 | B9 | 0.351 | 0.501 | 426
10 | B10 | 0.266 | 0.755 | 510
11 | B11 | 0.233 | 0.687 | 460
12 | B12 | 0.0453 | 0.114 | 79.7
13 | B13 | 0.0396 | 0.028 | 33.8
14 | B14 | 0.548 | 0.376 | 462
15 | B15 | 0.336 | 0.345 | 340
